Residue numbers refer to the chain shown, from its start.
B1: P1-061029.IgG1.3 (antibody)
heavy: EVQLVESGGGLVQPGKSLRLSCAASGFTLDDYAMHWVRQAPGKGLEWVSGINWNSANIGYADSVKGRFTISRDNAKNSLYLQMNSLRTEDTALYYCAKVPGYSGGWIDAFDVWGQGTMVTVSSASTKGPSVFPLAPSSKSTSGGTAALGCLVKDYFPEPVTVSWNSGALTSGVHTFPAVLQSSGLYSLSSVVTVPSSSLGTQTYICNVNHKPSNTKVDKRVEPKSCDKTHTCPPCPAPEAEGAPSVFLFPPKPKDTLMISRTPEVTCVVVDVSHEDPEVKFNWYVDGVEVHNAKTKPREEQYNSTYRVVSVLTVLHQDWLNGKEYKCKVSNKALPAPIEKTISKAKGQPREPQVYTLPPSREEMTKNQVSLTCLVKGFYPSDIAVEWESNGQPENNYKTTPPVLDSDGSFFLYSKLTVDKSRWQQGNVFSCSVMHEALHNHYTQKSLSLSPG
light: not shown
notes: IgG1.3; also called P1-061029 (parent); P1-061029-18
B2: P1-068761.IgG1.3 (antibody)
heavy: B1 heavy with D30E, Y32E, A56E, N57E, G104H, F110E
light: not shown
notes: IgG1.3; also called P1-068761-20; P1-068761 hIgG1.3f

Assays:
[1] = molecular target: T1, monovalent hVISTA-ECD (amino acids 32-193 of SEQ ID NO: 1 with a 7xHis tail) (human, UniProt Q9H7M9 33-193); assay: SPR 37C, pH 7.4 over pH 6.0
T1 construct: analyte of the SPR assays; also called huVISTA-His; human VISTA-ECD
Protocol: (§1) For this assay, ‘029, ‘761 and ‘767were reformatted as hIgG1f isotype and were expressed as both standard hIgG1f and in hIgG1f afucosylated formats to compare against the hIgG1.3f Fc. An SPR kinetics assay was conducted to measure koff and KD binding affinity measurements for VISTA Abs at acidic and physiological pH using a Biacore® T100 instrument (GE Healthcare). […] Antibodies were diluted to 25 nM in PBST pH 7.4, and were captured across active biosensor flow cells at 5 ul/min for 45 seconds. A concentration series of 1600 - 0.78 nM (pH 7.4) and 100 - 0.78 nM (pH 6.0) monovalent hVISTA-ECD (SEQ ID NO: 325) was prepared running buffer, and was injected over the captured antibodies at 40 ul/min to measure association and dissociation. Two 15 second injections of 10 mM glycine pH 1.5 were used to regenerate the Protein A capture surface between assay cycles. Rate constants ka (kₒₙ) and kd (koff) were derived from reference flow cell and 0 nM blank-subtracted sensorgrams, and were fit to a 1:1 binding model in Biacore® T200 Evaluation Software v.2.0. The affinity constant, KD was calculated as the ratio of rate constants koff/kₒₙ for each VISTA antibody. Ratios of koff and KD at pH 7.4 / pH 6.0 were calculated to compare off-rate and affinity improvement at acidic pH relative to physiological pH.

[2] = molecular target: T1, monovalent hVISTA-ECD (amino acids …); assay: SPR 37C, pH 6.9 over pH 6.0
Protocol: (§2) Human VISTA binding kinetics of P1-061029 (“ ‘029”), P1-068761 (“ ‘761”) and P1-068767 (“ ‘767”) (as IgG1.3 antibodies) were measured at pH values between pH 7.4 and pH 6.0, i.e., at pH 6.9 and pH 6.45 using a Biacore® T100 instrument (GE Healthcare). […] Antibodies were diluted to 25 nM in PBST pH 7.4, and were captured across active biosensor flow cells at 5 ul/min for 45 seconds. A concentration series of 100 - 0.78 nM monovalent hVISTA-ECD (SEQ ID NO: 325) was prepared pH 7.4, 6.9, 6.45 and 6.0 running buffers, and was injected over the captured antibodies at 40 ul/min to measure association and dissociation. Two 15 second injections of 10 mM glycine pH 1.5 were used to regenerate the Protein A capture surface between assay cycles. Rate constants ka (kₒₙ) and kd (koff) were derived from reference flow cell and 0 nM blank-subtracted sensorgrams, and were fit to a 1:1 binding model in Biacore® T200 Evaluation Software v.2.0. The affinity constant, KD was calculated as the ratio of rate constants koff/kₒₙ for each VISTA antibody. Ratios of koff and KD at each pH relative to pH 6.0 were calculated to evaluate how the VISTA koff and KD change as the buffer pH shifts to physiological, and are shown in Table 7. […] As the buffer pH shifts from acidic to physiological, VISTA koff and KD both weaken for ‘761 and ‘767. Physiological pH data for ‘761 and ‘767 for comparison is referenced from Table 7 and noted with an asterisk (*).

[3] = molecular target: T1, monovalent hVISTA-ECD (amino acids …); assay: SPR, Ab on Protein A, hVISTA 100-7.8 nM, pH 7.4
Protocol: Further binding kinetic experiments were performed at various pHs on VISTA antibodies described herein by SPR as generally described in Example 9 above. Antibodies were normalized to 50 nM concentration in PBST pH 7.4 and captured on a Protein A CM5 chip (ID 4931) by injecting for 45 seconds at a 5 µL/min flow rate. An 8-point human VISTA titration ([…]) was prepared in PBST at pH 7.4, 6.9, 6.45, and 6.0. Titrations were injected over the captured antibodies for 180 seconds at 30 µL/min. Sensorgrams were fit to a 1:1 binding model in T200 evaluation software and the kinetic constants were reported.

[4] = molecular target: T1, monovalent hVISTA-ECD (amino acids …); assay: SPR 37C, Ab on Protein A, hVISTA-ECD 100-0.78 nM, pH 6.0
Protocol: as §1

[5] = molecular target: T1, monovalent hVISTA-ECD (amino acids …); assay: SPR 37C, Ab on Protein A, hVISTA-ECD 100-0.78 nM, pH 6.45
Protocol: as §2

[6] = molecular target: T1, monovalent hVISTA-ECD (amino acids …); assay: SPR 37C, Ab on Protein A, hVISTA-ECD 50-5 nM, pH 7.4, average
Protocol: Binding of several preparations of each of the ‘029 progeny clones and of the parent ‘029 antibodies, formatted as IgG1.3 antibodies, to human VISTA at pH 6.0 and 7.4 was measured by Surface plasmon resonance (SPR). SPR analysis was performed to measure koff and KD binding affinity measurements for VISTA Abs at acidic and neutral pHs using a Biacore® T100 instrument (GE Healthcare). […] Antibodies were diluted to 25 nM in PBST pH 7.4, and were captured across active biosensor flow cells at 5 ul/min for 60 seconds. A concentration series of 50 - 5 nM monovalent hVISTA-ECD (SEQ ID NO: 325) was prepared in pH 7.4 and 6.0 running buffers, and was injected over the captured antibodies at 40 ul/min to measure association and dissociation. Two 15 second injections of 10 mM glycine pH 1.5 were used to regenerate the Protein A capture surface between assay cycles. Rate constants ka (kₒₙ) and kd (koff) were derived from reference flow cell and 0 nM blank-subtracted sensorgrams, and were fit to a 1:1 binding model in Biacore® T200 Evaluation Software v.2.0. The affinity constant, KD was calculated as the ratio of rate constants koff/kₒₙ for each VISTA antibody.

T1 sequence (Q9H7M9 other isoform, or with tags, fused parts or gaps limits assumed): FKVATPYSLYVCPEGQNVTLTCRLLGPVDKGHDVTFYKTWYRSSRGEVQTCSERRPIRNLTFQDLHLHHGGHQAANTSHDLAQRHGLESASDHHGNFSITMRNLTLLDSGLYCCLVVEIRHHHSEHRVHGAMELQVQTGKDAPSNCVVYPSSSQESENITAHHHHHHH

Binder | KD ratio (7.4/6) [1] | kd ratio (7.4/6) [1] | KD ratio to pH 6.0 [2] | koff ratio to pH 6.0 [2] | Kd [3] [nM] | koff [3] [s⁻¹] | kon [3] [M⁻¹ s⁻¹] | Kd [4] [nM] | koff [4] [s⁻¹] | kon [4] [M⁻¹ s⁻¹] | Kd [5] [nM] | koff [5] [s⁻¹] | kon [5] [M⁻¹ s⁻¹] | Kd [6] [nM] | koff [6] [s⁻¹] | kon [6] [M⁻¹ s⁻¹]
B1 | 5.8 | 0.9 | 7.1 | 1 | 13 | 0.00603 | 463000 | 7.2 | 0.0079 | 1.1e+06 | 5.3 | 0.004 | 740000 | 19 | 0.0056 | 290000
B2 | 2560 | 26.3 | 170 | 13.4 |  |  |  | 4.3 | 0.0016 | 370000 | 20 | 0.0021 | 110000 |  |  | 

Reference: patent US20230192860A1 (Bristol-Myers Squibb, published 2023)
